This is an account of results in patent US20250283886.

Series [1] deals with […]{LYS(N3)} peptide-linker conjugate, PEG4 linker (Table 6 entry 11).
Series [2] has as its system […]{LYS(N3)} peptide-linker conjugate, oligo linker (Table 6 entry 9).
The subject of series [3] is […]{LYS(N3)} peptide-linker conjugate, oligo linker (Table 6 entry 10).
Series [4] has as its system […]{LYS(N3)} peptide-linker conjugate, oligo linker (Table 6 entry 8).

Turning to Y. pestis proline iminopeptidase, the “Cleaved by PIP” value in series [1] is recorded as “Yes”; in series [2], “Yes”; in series [3], “No”; in series [4], “Yes”.
